According to patent US20080020412A1, “Aurora expression constructs” (priority 2006, published 2008):

T1: mouse Aurora-A (Mus musculus, UniProt P97477, K218R/M280L/N164G)
T1 construct: mouse Aurora-A residues 98-395; GST (N, cleaved yes); made in house; host or cells: E. coli BL21(DE3) Star, co-expressed with lambda phosphatase; a second 98-395 preparation came from insect cells
T1 sequence (P97477 with tags, fused parts or gaps N164G/K218R/M280L): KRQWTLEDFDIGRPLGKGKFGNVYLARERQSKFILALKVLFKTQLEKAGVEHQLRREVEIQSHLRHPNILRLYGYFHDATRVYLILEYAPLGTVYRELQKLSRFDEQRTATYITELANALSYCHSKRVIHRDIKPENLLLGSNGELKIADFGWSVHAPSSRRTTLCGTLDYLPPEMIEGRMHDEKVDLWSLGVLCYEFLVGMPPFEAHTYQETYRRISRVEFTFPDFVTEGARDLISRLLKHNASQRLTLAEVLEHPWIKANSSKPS


Experiments:
mouse Aurora-A [1] = experiment: Aurora-A activity assay (HTRF, enzyme and ATP titrations, histone H3 peptide substrate); assay type: biochemical; conditions: for Km / Vmax/[enzyme]: ATP titration; for Km: 120 nM biotinylated histone H3 peptide, 25° C., fit in GraphPad Prism; for Vmax/[enzyme]: ΔF/hr per nM enzyme
Method: (§1) Protein samples were diluted to 1 mg/mL and incubated for 2 hrs at 4° C. with 1 mM ATP and 5 mM MgCl2. Excess ATP was removed by extensive dialysis against 50 mM Tris-HCl pH 7.5, 200 mM NaCl, and 3 mM DTT.
(§2) Aurora A was titrated twofold in an assay buffer composed of 10 mM Tris-HCl pH 7.2, 10 mM MgCl2, 0.1% BSA, 0.01% Triton X-100 and 1 mM DTT, and containing 120 nM of biotinylated histone H3 substrate peptide (Upstate Biotechnology). The kinase reactions were initiated by adding 10 μL ATP to a final volume of 60 μL and the final ATP concentration of 20 μM. The reactions were incubated at 25° C. for 60 min and terminated by adding EDTA to a final concentration of 200 mM.
(§3) To determine the Km for ATP, ATP was titrated twofold in the assay buffer. The kinase reaction was initiated by adding 50 μL Aurora A (16 nM of insect cell-produced mouse enzyme with residues 98-395, 8 nM of the bacterially produced enzyme with residues 98-395, and 30 nM of the E. coli-expressed crystallography construct with residues 116-381) and histone H3 to a final volume of 60 μL and a final concentration of 120 nM.
(§4) To detect the assay product, the kinase reaction solution was combined with the detection buffer (the KF buffer) supplemented with 0.4 ng/μL phospho-histone H3 europium cryptate-conjugated antibody and 16 nM streptavidin-XL665 (both from Cisbio) in a 1:1 ratio in a 384-well plate. The mixture was incubated for 45 minutes at 25° C. and the plate was then scanned on the Analyst AD system. The fluorescence value F is defined as the ratio of fluorescent emissions at 620 and 665 nm. ΔF was generated by subtracting the average F value for negative control for enzyme activity from the F value in each reaction well. ΔF was plotted against enzyme concentration (for enzyme titrations) or against ATP concentration (for ATP titrations) with GraphPad Prism. The Km values and confidence intervals were determined by fitting the ATP titration curve in GraphPad Prism to the following equation: y=(Vmax*x)/(Km+x), where y is ΔF/hr and x is an ATP concentration.

mouse Aurora-A [2] = molecular target: T1, mouse Aurora-A; experiment: as above; assay type: biochemical; conditions: compared with the longer construct, FIG. 4
Method: as §1, §2, §3, §4

mouse Aurora-B = molecular target: T2, mouse Aurora-B (Mus musculus, UniProt O70126, L215S/L233S/M258K/P302T/P322T/V291S/W318S); experiment: Aurora-B enzyme activity assay (HTRF); assay type: biochemical; conditions: 20 nM construct against 300 nM commercially available Aurora-B
T2 construct: made in house; host or cells: E. coli BL21(DE3) Star
Method: Aurora-B enzyme preparations were tested for kinase activity in the presence and absence of compounds using a homogeneous time resolved fluorescence (HTRF) assay. In brief, the assay was performed by adding enzyme under appropriate reaction conditions to a tagged substrate. After the kinase reaction proceeds, quenching reagent is added, along with a first molecule consisting of a fluorescence donor conjugated to an antibody recognizing the phosphorylated substrate, and a second molecule that recognizes the tag and that is conjugated to a fluorescence acceptor. The extent of the kinase reaction is measured by time-resolved fluorescence transfer from the fluorescence donor to the fluorescence acceptor in a detection buffer, which occurs when the donor and acceptor are in proximity to one another on the phosphorylated substrate.
The assay was carried out as follows. […]
A 5 μL aliquot of the quenched reaction was transferred to a separate plate containing 5 μL detection buffer (final concentrations: 125 ng/mL europium cryptate-conjugated α-phospho H3 antibody, 8 nM streptavidin-tagged XL665, 25 mM HEPES buffer (pH 7.0), 0.25 M KF, and 0.05% BSA). The detection solution was allowed to incubate at room temperature for 45 min, after which the detection reactions were read on an Analyst AD (LJL Biosystems). […] Delta F is a value calculated from the ratio between the 665 nm and 620 nm emissions. […]

[3] = Electrospray mass spectrometry of purified protein for proteolysis between residues 291 and 292; assay type: physicochemical; conditions: expressed in E. coli, GST-tagged protein
Description: mAurB 7X was expressed in E. coli, purified as described below, and analyzed by electrospray mass spectrometry to verify the integrity of the purified protein. […] A construct missing the Val291→Ser and Met258→Lys mutations (referred to as mAurB 5X) was purified, and analyzed by mass spec to determine the extent of proteolysis between Val291 and Lys292. Even in this wild type configuration, proteolysis still affected approximately 25% of total GST-tagged protein. Two additional conservative mutations were introduced to eliminate the major site of proteolysis: Val291→Leu and Lys292→Arg referred to as mAurB 8X VK→LR (5′ primer: SEQ ID NO:53; 3′ primer: SEQ ID NO:54) and Val291→Leu and Lys292→Gln referred to as mAurB 8X VK→LQ (5′ primer: SEQ ID NO:55; 3′ primer: SEQ ID NO:56). The protein sequences of the mAurB 8X VK→LR and mAurB 8X VK→LQ are provided in SEQ ID NO:57 and SEQ ID NO:58, respectively.

Molecule | Km (mouse Aurora-A [1]) | Vmax/[enzyme] (mouse Aurora-A [1]) | change in Km for ATP (in words) (mouse Aurora-A [2]) | enzyme activity (in words) (mouse Aurora-A [1]; H3 peptide as substrate, FIG. 4) | activity compared with commercially available Aurora-B (mouse Aurora-B) | extent of proteolysis between residue 291 and Lys292 [3]
insect cell-expressed 98-395: insect cell-produced mouse Aurora-A enzyme with residues 98-395 (human residues 107-403) (protein, UniProt P97477 98-395, looked up, fragment) GNDSEKEQASLQKTEDTKKRQWTLEDFDIGRPLGKGKFGNVYLARERQSKFILALKVLFKTQLEKANVEHQLRREVEIQSHLRHPNILRLYGYFHDATRVYLILEYAPLGTVYRELQKLSKFDEQRTATYITELANALSYCHSKRVIHRDIKPENLLLGSNGELKIADFGWSVHAPSSRRTTMCGTLDYLPPEMIEGRMHDEKVDLWSLGVLCYEFLVGMPPFEAHTYQETYRRISRVEFTFPDFVTEGARDLISRLLKHNASQRLTLAEVLEHPWIKANSSKPPTGHTSKEPTSKSS | 13.6 ± 3.9 µM | 590 h⁻¹ nM⁻¹ | – | – | – | –
E. coli-produced 98-395: bacterially produced mouse Aurora-A residues 98-395 with three humanizing and stabilizing mutations (protein, Mutated Constructs, bacterially produced mouse Aurora-A residues 98-395 with three humanizing and stabilizing mutations) GNDSEKEQASLQKTEDTKKRQWTLEDFDIGRPLGKGKFGNVYLARERQSKFILALKVLFKTQLEKAGVEHQLRREVEIQSHLRHPNILRLYGYFHDATRVYLILEYAPLGTVYRELQKLSRFDEQRTATYITELANALSYCHSKRVIHRDIKPENLLLGSNGELKIADFGWSVHAPSSRRTTLCGTLDYLPPEMIEGRMHDEKVDLWSLGVLCYEFLVGMPPFEAHTYQETYRRISRVEFTFPDFVTEGARDLISRLLKHNASQRLTLAEVLEHPWIKANSSKPPTGHTSKEPTSKSS | 10.5 ± 3.5 µM | 1035 h⁻¹ nM⁻¹ | – | – | – | –
E. coli-produced 116-381: E. coli-expressed mouse Aurora-A crystallography construct, residues 116-381 (human residues 125-391) (protein, Mutated Constructs) KRQWTLEDFDIGRPLGKGKFGNVYLARERQSKFILALKVLFKTQLEKAGVEHQLRREVEIQSHLRHPNILRLYGYFHDATRVYLILEYAPLGTVYRELQKLSRFDEQRTATYITELANALSYCHSKRVIHRDIKPENLLLGSNGELKIADFGWSVHAPSSRRTTLCGTLDYLPPEMIEGRMHDEKVDLWSLGVLCYEFLVGMPPFEAHTYQETYRRISRVEFTFPDFVTEGARDLISRLLKHNASQRLTLAEVLEHPWIKANSSKPS | 65.3 ± 16.1 µM | 280 h⁻¹ nM⁻¹ | substantial increase in the Km for ATP | less active | – | –
mAurB 7X: truncated mouse Aurora-B with 7 hydrophobic surface residues mutated, GST-tagged (protein, listed as Mus musculus, GST tag, truncated mouse Aurora-B with 7 hydrophobic surface residues mutated, GST-tagged) KRQFTIDNFEIGRPLGKGKFGNVYLAREKKSRFIVALKILFKSQIEKEGVEHQLRREIEIQAHLKHPNILQLYNYFYDQQRIYLILEYAPRGELYKELQKSRTFDEQRTATIMEELSDALTYCHKKKVIHRDIKPENLLLGSQGELKIADFGWSVHAPSSRRKTMCGTLDYLPPEMIEGRMHNEKVDLWCIGVLCYELMVGNPPFESPSHSETYRRISKVDLKFPSSVTSGAQDLISKLLKHNPSQRLTLAEVAAHPWVRANSRRPS | – | – | – | – | compares favorably | Approximately 50%
